Experimental data published in PMC4643140, “Low-Temperature-Induced Expression of Rice Ureidoglycolate Amidohydrolase is Mediated by a C-Repeat/Dehydration-Responsive Element that Specifically Interacts with Rice C-Repeat-Binding Factor 3”.

Target: GST-OsCBF3 (Oryza sativa (rice), UniProt Q64MA1 1-238)
Assay: EMSA; 20 fmol probe, 1 ug protein; unlabeled E2 (2 pmol) competes; 20 uL reactions, Light-Shift Chemiluminescent EMSA Kit per manufacturer; buffer, salt, pH and temperature not stated
Conditions: protein: recombinant; tags: N-terminal GST (pGEX-4T-1); label: biotin on probe; blunt

Sequence of GST-OsCBF3 (Q64MA1 whole entry): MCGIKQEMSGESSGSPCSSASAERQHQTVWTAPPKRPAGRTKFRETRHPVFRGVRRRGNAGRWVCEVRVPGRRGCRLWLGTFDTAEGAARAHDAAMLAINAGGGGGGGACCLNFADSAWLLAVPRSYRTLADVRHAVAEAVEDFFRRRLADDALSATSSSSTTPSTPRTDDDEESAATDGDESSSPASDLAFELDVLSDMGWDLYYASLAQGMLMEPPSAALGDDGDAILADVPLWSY

B1: E2 (dsDNA)
DNA 1: AGCGTAGCTGCGGCGGAGAGCTCGCCGCCGACCCGCCCGGAGATTGGTTGCTTGCGCTG
DNA 2: CAGCGCAAGCAACCAATCTCCGGGCGGGTCGGCGGCGAGCTCTCCGCCGCAGCTACGCT
binding result: binds
